The target of one series is T1, GST-ANAC092(1-176) (Arabidopsis thaliana, UniProt Q9FKA0 1-176).
T1 sequence: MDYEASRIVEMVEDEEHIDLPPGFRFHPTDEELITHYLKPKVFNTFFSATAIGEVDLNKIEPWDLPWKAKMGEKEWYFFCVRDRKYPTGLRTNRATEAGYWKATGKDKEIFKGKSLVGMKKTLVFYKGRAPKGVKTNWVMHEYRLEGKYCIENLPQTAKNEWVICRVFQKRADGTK
The series is described as follows: EMSA; EMSA with 75 pM 32P-labelled DNA, binding buffer as in cited refs 7 and 36; oligos annealed in 20 mM Tris-HCl pH 8.0, 20 mM MgCl2. Particulars: protein: recombinant, tags: GST, chain copies: 2, label: 32P. In general terms: A gel shift assay detects complexes by their altered migration in electrophoresis.

A further series addresses GST-NTL6(1-168) (Arabidopsis thaliana, UniProt Q9SCK6 1-168). The description is as above. Particulars: protein: recombinant; tags: GST; chain copies: 2; label: 32P; 5' overhangs 4 nt (GATC) on both strands.

Sequence of GST-NTL6(1-168) (Q9SCK6 1-168): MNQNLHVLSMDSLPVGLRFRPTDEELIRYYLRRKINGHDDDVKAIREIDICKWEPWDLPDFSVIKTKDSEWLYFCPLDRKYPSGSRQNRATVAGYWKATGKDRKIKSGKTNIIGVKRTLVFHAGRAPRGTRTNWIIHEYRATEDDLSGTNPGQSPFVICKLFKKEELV

B1: PalNACBS (dsDNA)
DNA 1: CAGTCTTGCGTGTTGGAACACGCAACAGTC
DNA 2: GACTGTTGCGTGTTCCAACACGCAAGACTG
In the case of B1, in the series with GST-ANAC092(1-176) (blunt), the binding result is “binds”.

B2: MYB90Synth (Synthetic promoter) (dsDNA)
DNA 1: GATCAGGTTCAGCTAAGTAACCGATCCAGG
DNA 2: GATCCCTGGATCGGTTACTTAGCTGAACCT
As to B2, the binding result with GST-NTL6(1-168) was “binds”.

B3: MYB90 WT promoter (dsDNA)
DNA 1: GATCAGGTTCAGCTACGTCACCGATCCAGG
DNA 2: GATCCCTGGATCGGTGACGTAGCTGAACCT
Take B3: the binding result in the series with GST-ANAC092(1-176) (5' overhangs 4 nt (GATC) on both strands) is listed as “binds”; in the series with GST-NTL6(1-168), “no binding”.

For the origin of these results see paper PMC4081100, “A DNA-binding-site landscape and regulatory network analysis for NAC transcription factors in Arabidopsis thaliana”.
